In the supplement of paper PMC7125110:
± gives the standard error. This sample holds only a part of the variants without activity.

B1: glmS ribozyme (parent)
chain: AUAAAAGCGCCAGAACUACAGAAAUGUAGUUGACGAGGAGGAGGUUUAUCGAAUUUUCGGCGGAUGCCUCCAAA

Variants of: B1
Assay: self-cleavage kobs at 10000 uM GlcN6P; higher = faster cleavage; RNA array
Conditions: with glucosamine-6-phosphate
Summary of the method: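 Ribozyme variants carrying barcodes were transcribed in situ on sequenced MiSeq chips by E. coli RNA polymerase and tracked at 37 °C with a hybridised Cy3 probe. They were exposed to 40 μM to 10 mM glucosamine-6-phosphate in HEPES/KCl/Mg(OAc)2 buffer. kobs came from exponential decay fits of normalised per-tile medians, and kcat and KM from weighted Michaelis–Menten fits.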

G43C U55A G60U and A15U G37A U47A C67G C70G cannot be ordered by “self-cleavage kobs at 10000 uM GlcN6P” value: < 1e-05 s⁻¹ for the first, < 1e-05 s⁻¹ for the second.

A15G G35A U57G G62A and G9C A36C G43A U47A cannot be ordered by “self-cleavage kobs at 10000 uM GlcN6P” value: < 1e-05 s⁻¹ for the first, < 1e-05 s⁻¹ for the second.

G37U G38A U45G G51A and C8G G43A G44A C67A C70G cannot be ordered by “self-cleavage kobs at 10000 uM GlcN6P” value: < 1e-05 s⁻¹ for the first, < 1e-05 s⁻¹ for the second.

Going from C8G C50G C70G to G40C A52C, the “self-cleavage kobs at 10000 uM GlcN6P” value falls from 0.000104 ± 2.2e-05 s⁻¹ to < 1e-05 s⁻¹.

Compared with C10U A39C C61U C68G, A12C A64U is higher in “self-cleavage kobs at 10000 uM GlcN6P” value: < 1e-05 s⁻¹ for the first, 3.59e-05 ± 5.3e-06 s⁻¹ for the second.

First: A15U A39U U55A
Second: U31A A33U G35U G38U
The “self-cleavage kobs at 10000 uM GlcN6P” value of the first is higher: 0.00299 ± 0.00069 s⁻¹ for the first, < 1e-05 s⁻¹ for the second.

Going from A28G A52U A53G to G9A A33U G51A A52U U55A, the “self-cleavage kobs at 10000 uM GlcN6P” value falls from 9e-05 ± 1.6e-05 s⁻¹ to < 1e-05 s⁻¹.

Going from A6U U55A C70U to A14G G32C G40U A42G, the “self-cleavage kobs at 10000 uM GlcN6P” value falls from 0.000254 ± 6.5e-05 s⁻¹ to 6.25e-05 ± 2.1e-05 s⁻¹ (4.1-fold).

Compared with G13C U47G C70U, C50U G59U A64U is lower in “self-cleavage kobs at 10000 uM GlcN6P” value: 5.23e-05 ± 1.4e-05 s⁻¹ for the first, < 1e-05 s⁻¹ for the second.

U30A U47G A53G and C16G U54C C67U are within error of each other in “self-cleavage kobs at 10000 uM GlcN6P” value: 0.000616 ± 0.0001 s⁻¹ for the first, 0.000749 ± 0.00015 s⁻¹ for the second.

Going from A33G A48C C50U C70G to A15U C16U G29U C67A, the “self-cleavage kobs at 10000 uM GlcN6P” value rises from < 1e-05 s⁻¹ to 0.00151 ± 0.00034 s⁻¹.

Going from G41A C61G A64U to G44A A64G, the “self-cleavage kobs at 10000 uM GlcN6P” value rises from < 1e-05 s⁻¹ to 3.74e-05 ± 1.4e-05 s⁻¹.

C8G U30G G40A and A6C C16U G38U U49G G51U G59C U65A cannot be ordered by “self-cleavage kobs at 10000 uM GlcN6P” value: < 1e-05 s⁻¹ for the first, < 1e-05 s⁻¹ for the second.

Compared with A12U G29C A33U, C11G U30A G59C is 4.2-fold higher in “self-cleavage kobs at 10000 uM GlcN6P” value: 4.02e-05 ± 1.2e-05 s⁻¹ for the first, 0.000168 ± 3.9e-05 s⁻¹ for the second.

First: U54C G59A
Second: A15G A52G G66A C68U
The “self-cleavage kobs at 10000 uM GlcN6P” value of the first is 1.8-fold lower: 8.08e-05 ± 1.3e-05 s⁻¹ for the first, 0.000149 ± 2.8e-05 s⁻¹ for the second.

Compared with A33U C50G C61A C70U, A15U G43A G44C U45G is lower in “self-cleavage kobs at 10000 uM GlcN6P” value: 6e-05 ± 1.8e-05 s⁻¹ for the first, < 1e-05 s⁻¹ for the second.

Compared with A12G G43U G60C, C50G A53G C68G C70A is higher in “self-cleavage kobs at 10000 uM GlcN6P” value: < 1e-05 s⁻¹ for the first, 7.46e-05 ± 1.9e-05 s⁻¹ for the second.

First: U31G U47C C61U C71U
Second: C16A U31G C68U
The “self-cleavage kobs at 10000 uM GlcN6P” value of the first is lower: < 1e-05 s⁻¹ for the first, 4.49e-05 ± 1.5e-05 s⁻¹ for the second.

Going from A12G G21U A53U U69A to U31A G41U A42U G62A, the “self-cleavage kobs at 10000 uM GlcN6P” value falls from 0.0001 ± 2.2e-05 s⁻¹ to < 1e-05 s⁻¹.

A36G A48G C70A and G43C G51U G62U cannot be ordered by “self-cleavage kobs at 10000 uM GlcN6P” value: < 1e-05 s⁻¹ for the first, < 1e-05 s⁻¹ for the second.

A39U G51U C70A and C16U A42U A52C cannot be ordered by “self-cleavage kobs at 10000 uM GlcN6P” value: < 1e-05 s⁻¹ for the first, < 1e-05 s⁻¹ for the second.

C10A A15C C16U G40A G44A C61G and C8A A15U G35C cannot be ordered by “self-cleavage kobs at 10000 uM GlcN6P” value: < 1e-05 s⁻¹ for the first, < 1e-05 s⁻¹ for the second.

C16G A39U U47A C50G and G29A A33C G41C C70U cannot be ordered by “self-cleavage kobs at 10000 uM GlcN6P” value: < 1e-05 s⁻¹ for the first, < 1e-05 s⁻¹ for the second.

G32C G37U G44C A52C and A6U A36U A42C U65C cannot be ordered by “self-cleavage kobs at 10000 uM GlcN6P” value: < 1e-05 s⁻¹ for the first, < 1e-05 s⁻¹ for the second.

Going from G32A G40U C67U to G7U G13U C16U C50G U56G G66U, the “self-cleavage kobs at 10000 uM GlcN6P” value rises from < 1e-05 s⁻¹ to 3.32e-05 ± 1.5e-05 s⁻¹.

U56C U57A and G9A A33C C50G A52G G59U C71A are within error of each other in “self-cleavage kobs at 10000 uM GlcN6P” value: 8.46e-05 ± 1.3e-05 s⁻¹ for the first, 5.24e-05 ± 2e-05 s⁻¹ for the second.

Compared with C8A C58U U69G, C11A U47G is 9.7-fold lower in “self-cleavage kobs at 10000 uM GlcN6P” value: 0.0005 ± 8.7e-05 s⁻¹ for the first, 5.18e-05 ± 1.5e-05 s⁻¹ for the second.

First: G13U C34U G37U A53U
Second: G29C G32A U54A
The “self-cleavage kobs at 10000 uM GlcN6P” value of the first is lower: < 1e-05 s⁻¹ for the first, 0.000923 ± 0.00011 s⁻¹ for the second.

Compared with A12U G32U U54C, A12U C50G A52C C70G is 4-fold lower in “self-cleavage kobs at 10000 uM GlcN6P” value: 0.000319 ± 5.4e-05 s⁻¹ for the first, 7.94e-05 ± 2.3e-05 s⁻¹ for the second.

G7A U57C and C11U G32U U45G C61G cannot be ordered by “self-cleavage kobs at 10000 uM GlcN6P” value: < 1e-05 s⁻¹ for the first, < 1e-05 s⁻¹ for the second.

First: A39G C61A G62U
Second: C11U A14C A15U G38U C68G
The “self-cleavage kobs at 10000 uM GlcN6P” value of the first is lower: < 1e-05 s⁻¹ for the first, 7.05e-05 ± 3e-05 s⁻¹ for the second.

A15C U46C G62U and C10G G29A U65C cannot be ordered by “self-cleavage kobs at 10000 uM GlcN6P” value: < 1e-05 s⁻¹ for the first, < 1e-05 s⁻¹ for the second.

G7C G9U G41A C50U C71G and C11G U25C A53U A64U cannot be ordered by “self-cleavage kobs at 10000 uM GlcN6P” value: < 1e-05 s⁻¹ for the first, < 1e-05 s⁻¹ for the second.

Going from G29U U55C U57A to G37C G41A G51U G62U C67A, the “self-cleavage kobs at 10000 uM GlcN6P” value falls from 4.36e-05 ± 1.5e-05 s⁻¹ to < 1e-05 s⁻¹.

First: A6G U30G C68G
Second: G32A U54C U56C C58A
The “self-cleavage kobs at 10000 uM GlcN6P” value of the first is lower: < 1e-05 s⁻¹ for the first, 9.78e-05 ± 2.1e-05 s⁻¹ for the second.

Compared with C16G U55G C58U, C16A G29A U46C is 2-fold higher in “self-cleavage kobs at 10000 uM GlcN6P” value: 5.56e-05 ± 2.5e-05 s⁻¹ for the first, 0.00011 ± 1.8e-05 s⁻¹ for the second.

G40A G59U C61A and C50A U55G U57C cannot be ordered by “self-cleavage kobs at 10000 uM GlcN6P” value: < 1e-05 s⁻¹ for the first, < 1e-05 s⁻¹ for the second.

G13A A42U U49G C58U and A39C G44A G59C cannot be ordered by “self-cleavage kobs at 10000 uM GlcN6P” value: < 1e-05 s⁻¹ for the first, < 1e-05 s⁻¹ for the second.

First: A14C G32A U69G
Second: C8U G13U A15U C16U G32C A48U
The “self-cleavage kobs at 10000 uM GlcN6P” value of the first is higher: 7e-05 ± 1.6e-05 s⁻¹ for the first, < 1e-05 s⁻¹ for the second.

Going from A12U A15U U57G to G37C G63U, the “self-cleavage kobs at 10000 uM GlcN6P” value falls from 3.38e-05 ± 1.4e-05 s⁻¹ to < 1e-05 s⁻¹.

Going from G13A G37A to C50U G51U C70U, the “self-cleavage kobs at 10000 uM GlcN6P” value falls from 4.89e-05 ± 1.1e-05 s⁻¹ to < 1e-05 s⁻¹.

With U47G A48U C68U the “self-cleavage kobs at 10000 uM GlcN6P” value was 9.1e-05 ± 1.8e-05 s⁻¹.
